Data as given in publication PMC10058238, “Mechanism of sphingolipid homeostasis revealed by structural analysis of Arabidopsis SPT-ORM1 complex” (Science Advances, 2023).

T1: Flag-tagged Arabidopsis SPTssa (Arabidopsis, UniProt A8MSB8 1-56)
T1 construct: SPTssa, small subunit of serine palmitoyltransferase, Arabidopsis; codon-optimized cDNA in pCAG; residues 1 to 48 are in the atomic model; The only tagged subunit; bait of every purification; also called Flag-SPTssa; Flag-AtSPTssa; source: HEK293F, transiently cotransfected with the other subunits, purified as a complex (anti-Flag resin, Superose 6) in GDN; not shown: Flag, N-terminal, kept
T1 sequence: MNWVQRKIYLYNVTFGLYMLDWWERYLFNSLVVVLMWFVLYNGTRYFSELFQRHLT

T2: Arabidopsis SPT complex (LCB1, LCB2a, SPTssa) (Arabidopsis, UniProt Q94IB8 1-482; Q9LSZ9 1-489; A8MSB8 1-56)
T2 sequence 1: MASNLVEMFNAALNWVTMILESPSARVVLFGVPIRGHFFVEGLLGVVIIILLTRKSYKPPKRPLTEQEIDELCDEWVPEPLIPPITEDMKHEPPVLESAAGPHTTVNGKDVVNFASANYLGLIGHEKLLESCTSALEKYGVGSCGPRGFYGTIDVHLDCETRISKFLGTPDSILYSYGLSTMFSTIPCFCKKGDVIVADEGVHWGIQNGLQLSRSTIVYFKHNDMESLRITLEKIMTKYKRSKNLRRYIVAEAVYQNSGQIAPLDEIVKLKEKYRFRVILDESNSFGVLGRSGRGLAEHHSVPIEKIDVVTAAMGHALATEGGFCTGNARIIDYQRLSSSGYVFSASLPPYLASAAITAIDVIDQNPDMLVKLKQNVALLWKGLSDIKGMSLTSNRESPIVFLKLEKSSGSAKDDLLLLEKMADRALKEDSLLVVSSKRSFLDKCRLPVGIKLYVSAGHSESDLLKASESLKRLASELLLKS
T2 sequence 2: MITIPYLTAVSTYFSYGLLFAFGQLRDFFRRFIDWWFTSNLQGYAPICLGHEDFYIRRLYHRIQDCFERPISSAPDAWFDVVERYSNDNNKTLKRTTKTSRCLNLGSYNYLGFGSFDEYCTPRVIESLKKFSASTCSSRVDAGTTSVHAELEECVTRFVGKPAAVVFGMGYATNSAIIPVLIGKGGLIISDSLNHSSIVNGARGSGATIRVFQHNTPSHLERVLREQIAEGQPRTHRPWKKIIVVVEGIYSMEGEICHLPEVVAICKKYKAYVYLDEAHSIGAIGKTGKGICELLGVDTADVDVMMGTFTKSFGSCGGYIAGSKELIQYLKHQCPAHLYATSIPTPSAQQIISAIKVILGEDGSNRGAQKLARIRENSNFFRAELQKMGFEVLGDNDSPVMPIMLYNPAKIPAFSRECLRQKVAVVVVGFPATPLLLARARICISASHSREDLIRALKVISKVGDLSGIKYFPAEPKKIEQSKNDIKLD
T2 sequence 3: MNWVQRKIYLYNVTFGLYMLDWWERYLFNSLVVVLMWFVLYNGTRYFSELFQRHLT

T3: Arabidopsis LCB2a-ΔN5 (Arabidopsis, UniProt Q9LSZ9 1-489, LCB2a-ΔN5 (deletion of residues 2 to 5))
T3 construct: LCB2a, Arabidopsis, with residues 2 to 5 deleted; also called LCB2a-ΔN5 variant
T3 sequence: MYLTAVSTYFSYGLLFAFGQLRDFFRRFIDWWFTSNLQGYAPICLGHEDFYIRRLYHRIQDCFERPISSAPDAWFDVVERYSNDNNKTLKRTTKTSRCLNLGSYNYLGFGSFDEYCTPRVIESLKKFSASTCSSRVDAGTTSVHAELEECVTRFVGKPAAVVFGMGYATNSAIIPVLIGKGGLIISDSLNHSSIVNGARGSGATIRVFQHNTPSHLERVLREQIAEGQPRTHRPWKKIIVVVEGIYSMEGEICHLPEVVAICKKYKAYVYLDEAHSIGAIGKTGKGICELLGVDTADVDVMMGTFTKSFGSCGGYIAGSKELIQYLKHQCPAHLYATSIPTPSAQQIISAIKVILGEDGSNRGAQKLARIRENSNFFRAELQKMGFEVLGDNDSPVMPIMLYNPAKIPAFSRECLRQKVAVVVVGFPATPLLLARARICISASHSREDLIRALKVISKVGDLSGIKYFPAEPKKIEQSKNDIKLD

B1: Arabidopsis LCB2a (natural protein)
chain: MITIPYLTAVSTYFSYGLLFAFGQLRDFFRRFIDWWFTSNLQGYAPICLGHEDFYIRRLYHRIQDCFERPISSAPDAWFDVVERYSNDNNKTLKRTTKTSRCLNLGSYNYLGFGSFDEYCTPRVIESLKKFSASTCSSRVDAGTTSVHAELEECVTRFVGKPAAVVFGMGYATNSAIIPVLIGKGGLIISDSLNHSSIVNGARGSGATIRVFQHNTPSHLERVLREQIAEGQPRTHRPWKKIIVVVEGIYSMEGEICHLPEVVAICKKYKAYVYLDEAHSIGAIGKTGKGICELLGVDTADVDVMMGTFTKSFGSCGGYIAGSKELIQYLKHQCPAHLYATSIPTPSAQQIISAIKVILGEDGSNRGAQKLARIRENSNFFRAELQKMGFEVLGDNDSPVMPIMLYNPAKIPAFSRECLRQKVAVVVVGFPATPLLLARARICISASHSREDLIRALKVISKVGDLSGIKYFPAEPKKIEQSKNDIKLD
modifications: pyridoxal 5'-phosphate covalently linked to the ε-amino group of Lys311 (internal aldimine)
notes: LCB2a, subunit of serine palmitoyltransferase, Arabidopsis; codon-optimized cDNA in pCAG without a tag; residues 1 to 36 and 41 to 475 are in the atomic model; The sentence on the PLP link prints 'LCB2b'; the construct is LCB2a; also called AtLCB2a; source: HEK293F, transiently cotransfected with the other subunits, purified as a complex (anti-Flag resin, Superose 6) in GDN

Assays:
[1] = molecular target: T1, Flag-tagged Arabidopsis SPTssa; assay: cryo-EM structure; single-particle cryo-EM of the coexpressed, purified complexes (WT, ORM1-N17A, LCB2a-ΔN5) at ~18 mg/ml in 25 mM Hepes pH 7.5, 150 mM NaCl, 0.01% GDN; the LCB2a-ΔN5 sample preincubated with 0.5 mM PLP, 10 mM L-serine and 1 mM S-CoA; conditions: both partners purified
[2] = molecular target: T2, Arabidopsis SPT complex (LCB1, LCB2a, …); assay: cell-based or functional assay
Arabidopsis LCB2a = molecular target: B1; assay: cryo-EM structure; single-particle cryo-EM of the coexpressed, purified complexes (WT, ORM1-N17A, LCB2a-ΔN5) at ~18 mg/ml in 25 mM Hepes pH 7.5, 150 mM NaCl, 0.01% GDN; the LCB2a-ΔN5 sample preincubated with 0.5 mM PLP, 10 mM L-serine and 1 mM S-CoA; conditions: both partners purified
Arabidopsis LCB2a-ΔN5 = molecular target: T3, Arabidopsis LCB2a-ΔN5; assay: as above; conditions: both partners purified
[3] = molecular target: the molecule itself; assay: as above

stoichiometry N [1]	binding result (Arabidopsis LCB2a)	Binder	further results
1	–	Arabidopsis LCB1 (natural protein, UniProt Q94IB8 1-482, looked up, LCB1, subunit of serine palmitoyltransferase, Arabidopsis; codon-optimized cDNA in pCAG without a tag; residues 36 to 480 are in the atomic model; also called AtLCB1; source: HEK293F, transiently cotransfected with the other subunits, purified as a complex (anti-Flag resin, Superose 6) in GDN) MASNLVEMFNAALNWVTMILESPSARVVLFGVPIRGHFFVEGLLGVVIIILLTRKSYKPPKRPLTEQEIDELCDEWVPEPLIPPITEDMKHEPPVLESAAGPHTTVNGKDVVNFASANYLGLIGHEKLLESCTSALEKYGVGSCGPRGFYGTIDVHLDCETRISKFLGTPDSILYSYGLSTMFSTIPCFCKKGDVIVADEGVHWGIQNGLQLSRSTIVYFKHNDMESLRITLEKIMTKYKRSKNLRRYIVAEAVYQNSGQIAPLDEIVKLKEKYRFRVILDESNSFGVLGRSGRGLAEHHSVPIEKIDVVTAAMGHALATEGGFCTGNARIIDYQRLSSSGYVFSASLPPYLASAAITAIDVIDQNPDMLVKLKQNVALLWKGLSDIKGMSLTSNRESPIVFLKLEKSSGSAKDDLLLLEKMADRALKEDSLLVVSSKRSFLDKCRLPVGIKLYVSAGHSESDLLKASESLKRLASELLLKS	–
1	–	B1	–
1	binds	Arabidopsis ORM1 (natural protein, ORM1, Arabidopsis; codon-optimized cDNA in pCAG without a tag; residues 1 to 156 are in the atomic model; also called AtORM1; WT ORM1) MANLYVKAVPPPDMNRNTEWFMYPGVWTTYMLILFFGWLVVLSVSGCSPGMAWTVVNLAHFVVTYHSFHWMKGTPFADDQGIYNGLTWWEQMDNGQQLTRNRKFLTLVPVVLYLIASHTTDYRHPWLFLNTLAVMVLVVAKFPNMHKVRIFGINGDK	specific SPT activity of the purified SPT-ORM1 complex at saturating conditions, relative to the SPT complex [2]: ~50%; binding result (Arabidopsis LCB2a-ΔN5): binds
–	–	Arabidopsis SPT-ORM1 complex (LCB1, LCB2a, SPTssa, ORM1) (complex, pyridoxal 5'-phosphate covalently linked to the ε-amino group of Lys311 (internal aldimine), LCB1, Arabidopsis; as m1; LCB2a, Arabidopsis; as m2; SPTssa, Arabidopsis; as m3; ORM1, Arabidopsis; as m4; One protomer (1:1:1:1) of the dimer seen by cryo-EM; an endogenous ceramide copurifies between ORM1 and LCB2a; also called AtSPT-ORM1; WT SPT-ORM1 complex; source: HEK293F, transiently cotransfected (LCB1:LCB2a:ORM1:SPTssa = 3:3:3:1), purified (anti-Flag resin, Superose 6) in GDN; not shown: …) chain 1: MASNLVEMFNAALNWVTMILESPSARVVLFGVPIRGHFFVEGLLGVVIIILLTRKSYKPPKRPLTEQEIDELCDEWVPEPLIPPITEDMKHEPPVLESAAGPHTTVNGKDVVNFASANYLGLIGHEKLLESCTSALEKYGVGSCGPRGFYGTIDVHLDCETRISKFLGTPDSILYSYGLSTMFSTIPCFCKKGDVIVADEGVHWGIQNGLQLSRSTIVYFKHNDMESLRITLEKIMTKYKRSKNLRRYIVAEAVYQNSGQIAPLDEIVKLKEKYRFRVILDESNSFGVLGRSGRGLAEHHSVPIEKIDVVTAAMGHALATEGGFCTGNARIIDYQRLSSSGYVFSASLPPYLASAAITAIDVIDQNPDMLVKLKQNVALLWKGLSDIKGMSLTSNRESPIVFLKLEKSSGSAKDDLLLLEKMADRALKEDSLLVVSSKRSFLDKCRLPVGIKLYVSAGHSESDLLKASESLKRLASELLLKS chain 2: MITIPYLTAVSTYFSYGLLFAFGQLRDFFRRFIDWWFTSNLQGYAPICLGHEDFYIRRLYHRIQDCFERPISSAPDAWFDVVERYSNDNNKTLKRTTKTSRCLNLGSYNYLGFGSFDEYCTPRVIESLKKFSASTCSSRVDAGTTSVHAELEECVTRFVGKPAAVVFGMGYATNSAIIPVLIGKGGLIISDSLNHSSIVNGARGSGATIRVFQHNTPSHLERVLREQIAEGQPRTHRPWKKIIVVVEGIYSMEGEICHLPEVVAICKKYKAYVYLDEAHSIGAIGKTGKGICELLGVDTADVDVMMGTFTKSFGSCGGYIAGSKELIQYLKHQCPAHLYATSIPTPSAQQIISAIKVILGEDGSNRGAQKLARIRENSNFFRAELQKMGFEVLGDNDSPVMPIMLYNPAKIPAFSRECLRQKVAVVVVGFPATPLLLARARICISASHSREDLIRALKVISKVGDLSGIKYFPAEPKKIEQSKNDIKLD chain 3: MNWVQRKIYLYNVTFGLYMLDWWERYLFNSLVVVLMWFVLYNGTRYFSELFQRHLT chain 4: MANLYVKAVPPPDMNRNTEWFMYPGVWTTYMLILFFGWLVVLSVSGCSPGMAWTVVNLAHFVVTYHSFHWMKGTPFADDQGIYNGLTWWEQMDNGQQLTRNRKFLTLVPVVLYLIASHTTDYRHPWLFLNTLAVMVLVVAKFPNMHKVRIFGINGDK	stoichiometry N [3]: 2
–	binds	Arabidopsis ORM1-N17A (natural protein, ORM1, Arabidopsis, with N17A; residues 1 to 11 almost invisible in the map; also called ORM1-N17A variant) MANLYVKAVPPPDMNRATEWFMYPGVWTTYMLILFFGWLVVLSVSGCSPGMAWTVVNLAHFVVTYHSFHWMKGTPFADDQGIYNGLTWWEQMDNGQQLTRNRKFLTLVPVVLYLIASHTTDYRHPWLFLNTLAVMVLVVAKFPNMHKVRIFGINGDK	–
